Positions count from the first letter of the chain named.
Assays:
[1] = biological target: apical membrane antigen-1 (AMA1) of Plasmodium falciparum, strain 3D7 (Plasmodium falciparum); assay: ELISA, biosensor and protein bioarray
[2] = biological target: apical membrane antigen-1 (AMA1) of Plasmodium falciparum, strain 3D7 (Plasmodium falciparum); assay: protein bioarray
[3] = biological target: apical membrane antigen-1 (AMA1) of Plasmodium falciparum, strain 3D7 (Plasmodium falciparum); assay: biosensor, purified proteins
[4] = biological target: apical membrane antigen-1 (AMA1) of Plasmodium falciparum, strain 3D7 (Plasmodium falciparum); assay: not stated (screen of a random mutagenesis library against AMA1)

B1: VNAR 22A-2 (12Y-2 Thr39Ser; Pro90Leu) (VNAR)
VNAR: AWVDQTPRTATKETGESLTINCVLRDASFELKDTGWYRSKLGSTNEQSISIGGRYVETVNKGSKSFSLRISDLRVEDSGTYKCQAFYSLLLGDYNYSLLFRGEKGAGTALTVK
- fold better affinity than 14M-15 [1]: 2 fold
- Kd [2]: 2.6 nM
- fold better affinity than 12Y-2 [3]: 20 fold

B2: VNAR 14M-8 (12Y-2 Phe100Leu) (VNAR)
VNAR: B1 VNAR with S39T, L90P, F100L
- fold enhanced affinity over the wild type 12Y-2 [4]: 10 fold

B3: VNAR 14M-15 (12Y-2 Pro90Leu variant) (VNAR)
VNAR: B1 VNAR with S39T
- fold enhanced affinity over the wild type 12Y-2 [4]: 10 fold
- Kd [2]: 6.5 nM

Reference: patent US20120003214A1
